We go through one molecule from PMC4773404, “Activation of a synapse weakening pathway by human Val66 but not Met66 pro-brain-derived neurotrophic factor (proBDNF)” (Pharmacological Research, 2016).

What all share (test): SPR; Biacore T200; receptor domains amine-coupled to CM5-S Series chips; analytes 0-20 nM flowed over; 10 mM HEPES, 150 mM NaCl, 3 mM EDTA, 0.05% surfactant P20, pH 7.4; double-referenced; 1:1 Langmuir fit
Details in all cases: both partners purified
(SPR reads the build-up and loss of mass on a sensor chip optically.)

Test [1] concerns the target T1, human proBDNF Val66, furin cleavage-resistant (FCR) (human).
T1 construct: furin site 127RR128 changed to AA; non-glycosylated; Cloned in pET 24a(+); also called proBDNF FCR Val66
T1 sequence (P23560 whole entry, looked up): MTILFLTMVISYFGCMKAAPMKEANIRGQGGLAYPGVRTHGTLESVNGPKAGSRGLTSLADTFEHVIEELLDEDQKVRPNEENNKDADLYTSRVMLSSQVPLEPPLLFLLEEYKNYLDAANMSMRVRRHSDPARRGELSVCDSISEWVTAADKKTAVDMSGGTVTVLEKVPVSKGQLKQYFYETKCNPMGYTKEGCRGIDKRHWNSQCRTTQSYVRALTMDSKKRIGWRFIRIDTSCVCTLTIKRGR

In test [2] the target is T2, human proBDNF Met66, furin cleavage-resistant (FCR) (human).
T2 construct: furin site 127RR128 changed to AA; non-glycosylated; Cloned in pET 24a(+); also called proBDNF FCR Met66
T2 sequence (P23560 whole entry, looked up): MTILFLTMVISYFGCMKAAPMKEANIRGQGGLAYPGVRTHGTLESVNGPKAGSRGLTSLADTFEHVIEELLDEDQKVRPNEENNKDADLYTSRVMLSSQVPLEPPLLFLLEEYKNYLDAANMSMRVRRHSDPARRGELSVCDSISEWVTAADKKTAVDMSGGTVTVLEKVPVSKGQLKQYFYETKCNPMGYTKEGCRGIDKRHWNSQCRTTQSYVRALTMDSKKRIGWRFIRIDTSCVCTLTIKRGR

Test [3] has as its target T3, brain-derived neurotrophic factor (BDNF).
T3 construct: mature BDNF (~14 kDa), the cut product of proBDNF; used as control analyte in SPR; also called mature BDNF
T3 sequence (P23560 19-247, species assumed, looked up): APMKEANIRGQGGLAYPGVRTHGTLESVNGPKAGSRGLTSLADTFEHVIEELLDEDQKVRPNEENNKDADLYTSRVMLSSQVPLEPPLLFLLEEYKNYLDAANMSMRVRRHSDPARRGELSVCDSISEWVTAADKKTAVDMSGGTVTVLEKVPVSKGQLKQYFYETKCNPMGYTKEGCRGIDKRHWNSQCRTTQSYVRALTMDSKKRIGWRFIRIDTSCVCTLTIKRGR

B1: TrkB immunoglobulin-like domain 2 (TrkBIg2) (domain or fragment)
chain: APTITFLESPTSDHHWCIPFTVKGNPKPALQWFYNGAILNESKYICTKIHVTNHTEYHGCLQLDNPTHMNNGDYTLIAKNEYGKDEKQISAHFMGWPG
For orientation: Kd means the free concentration of one partner at which half of the binding sites on the other are occupied at equilibrium, for simple one-to-one binding. Low readings indicate tighter binding, high ones weaker binding. By koff is commonly meant the first-order rate constant of dissociation. What is called kon is the second-order rate constant of association. Higher therefore signals faster complex formation. B1: in test [1], the affinity, expressed as Kd, was 2.32 nM; the koff turned out to be 0.00367 s⁻¹; the kon was found to be 1.61e+06 M⁻¹ s⁻¹. In addition, in test [2], the Kd turned out to be 2.03 nM, the koff was found to be 0.00392 s⁻¹ and the kon was 1.99e+06 M⁻¹ s⁻¹. In test [3], this molecule registered a Kd of 0.58 nM, a koff of 0.00232 s⁻¹ and a kon of 4.57e+06 M⁻¹ s⁻¹.
